In the Human Domainome abundance scans (Beltran et al. 2025):
± gives the uncertainty stated by the source.

B1: E3 ubiquitin-protein ligase TRIM36, residues 208 to 252; numbered along this chain, Q9NQ86 (parent)
chain: KILMCPEHETERINMYCELCRRPVCHLCKLGGNHANHRVTTMSSA

Variants of: B1
Experiment: abundance fitness (aPCA) (normalised: wild type 0, dead -1); higher = more abundant; growth selection in yeast, the domain comes from the species named
Conditions: Homo sapiens

Variant | abundance fitness
KILMCPEHETERINMYCELCRRPVCHLCKLGGNHANHWVTTMSSA [R38W] | 0 ± 0.098
KILMCPEHETERINMYCELCRRPVCHLCKLGGNHANHVVTTMSSA [R38V] | 0.036 ± 0.055
KILMCPEHETERINMYCELCRRPVCHLCKLGGNHANHMVTTMSSA [R38M] | 0.008 ± 0.055
KILMCPEHETERINMYCELCRRPVCHLCKLGGNHANHYVTTMSSA [R38Y] | -0.005 ± 0.093
KILMCPEHETERINMYCELCRRPVCHLCKLGGNHANHRVTTMQSA [S43Q] | 0.027 ± 0.067
KILMCPEHETERINMYCELCRRPVCHLCKLGGNHANHRVTTMCSA [S43C] | -0.129 ± 0.063
KILMCPEHETERINMYCELCRRPVCHLCKLGGNHANHRVTTMISA [S43I] | -0.272 ± 0.09
KILMCPEHETERINMYCELCRRPVCHLCKLGGNHANHRVTTMNSA [S43N] | -0.042 ± 0.096
KILMCPEHETERINMYCELCRRPVCHLCKLGGNHANHRVTTMGSA [S43G] | -0.022 ± 0.053
KILMCPEHETERINMYCELCRRPVCHLCKLGGNHANHRVTTMWSA [S43W] | -0.352 ± 0.066
KILMCPEHETERINMYCELCRRPVCHLCKLGGNHANHRVTTMLSA [S43L] | -0.181 ± 0.056
KILMCPEHETERINMYCELCRRPVCHLCKLGGNHANHRVTTMTSA [S43T] | -0.093 ± 0.054
KILMCPEHETERINMYCELCRRPVCHLCKLGGNHANHRVTTMASA [S43A] | 0.001 ± 0.056
KILMCPEHETERINMYCELCRRPVCHLCKLGGNHANHRVTTMKSA [S43K] | -0.145 ± 0.065
KILMCPEHETERINMYCELCRRPVCHLCKLGGNHANHRVTTMESA [S43E] | 0.083 ± 0.069
KILMCPEHETERINMYCELCRRPVCHLCKLGGNHANHRVTTMHSA [S43H] | -0.067 ± 0.12
KILMCPEHETERINMYCELCRRPVCHLCKLGGNHANHRVTTMVSA [S43V] | -0.075 ± 0.052
KILMCPEHETERINMYCELCRRPVCHLCKLGGNHANHRVTTMYSA [S43Y] | -0.439 ± 0.12
KILMCPEHETERINMYCELCRRPVCHLCKLGGNHANHRVTTMMSA [S43M] | -0.13 ± 0.074

Variant | abundance fitness
KILMCPEHETERINMYCELCRRPVCHLCKLGGNHANHRVTTMDSA [S43D] | -0.063 ± 0.093
KILMCPEHETERINMYCELCRRPVCHLCKLGGNHANHRVTTMFSA [S43F] | -0.415 ± 0.18
KILMCPEHETERINMYCELCRRPVCHLCKLGGNHANHRVTCMSSA [T41C] | -0.112 ± 0.066
KILMCPEHETERINMYCELCRRPVCHLCKLGGNHANHRVTLMSSA [T41L] | -0.149 ± 0.049
KILMCPEHETERINMYCELCRRPVCHLCKLGGNHANHRVTVMSSA [T41V] | -0.084 ± 0.046
KILMCPEHETERINMYCELCRRPVCHLCKLGGNHANHRVTGMSSA [T41G] | 0.003 ± 0.043
KILMCPEHETERINMYCELCRRPVCHLCKLGGNHANHRVTWMSSA [T41W] | -0.249 ± 0.053
KILMCPEHETERINMYCELCRRPVCHLCKLGGNHANHRVTAMSSA [T41A] | -0.111 ± 0.062
KILMCPEHETERINMYCELCRRPVCHLCKLGGNHANHRVTKMSSA [T41K] | 0.007 ± 0.06
KILMCPEHETERINMYCELCRRPVCHLCKLGGNHANHRVTQMSSA [T41Q] | -0.11 ± 0.086
KILMCPEHETERINMYCELCRRPVCHLCKLGGNHANHRVTFMSSA [T41F] | -0.189 ± 0.084
KILMCPEHETERINMYCELCRRPVCHLCKLGGNHANHRVTYMSSA [T41Y] | -0.29 ± 0.12
KILMCPEHETERINMYCELCRRPVCHLCKLGGNHANHRVTRMSSA [T41R] | -0.093 ± 0.045
KILMCPEHETERINMYCELCRRPVCHLCKLGGNHANHRVTSMSSA [T41S] | -0.043 ± 0.056
KILMCPEHETERINMYCELCRRPVCHLCKLGGNHANHRVTIMSSA [T41I] | -0.158 ± 0.078
KILMCPEHETERINMYCELCRRPVCHLCKLGGNHANHRVTMMSSA [T41M] | -0.142 ± 0.083
KILMCPEHETERINMYCELCRRPVCHLCKLGGNHANHRVTEMSSA [T41E] | 0.071 ± 0.058
KILMCPEHETERINMYCELCRRPVCHLCKLGGNHANHRVTDMSSA [T41D] | -0.026 ± 0.065
KILMCPEHETERINMYCELCRRPVCHLCKLGGNHANHRVTPMSSA [T41P] | -0.059 ± 0.062

Variant | abundance fitness
KILMCPEHETERINMYCELCRRPVCHLCKLGGNHANHRVTHMSSA [T41H] | -0.526 ± 0.18
KILMCPEHETERINMYCELCRRPVCHLCKLGGNHANHRVTNMSSA [T41N] | -0.289 ± 0.16
KILMCPEHETERINMYCELCRRPVCHLCKLGGNHANHRVTTQSSA [M42Q] | 0.067 ± 0.068
KILMCPEHETERINMYCELCRRPVCHLCKLGGNHANHRVTTWSSA [M42W] | -0.071 ± 0.048
KILMCPEHETERINMYCELCRRPVCHLCKLGGNHANHRVTTVSSA [M42V] | 0.001 ± 0.046
KILMCPEHETERINMYCELCRRPVCHLCKLGGNHANHRVTTDSSA [M42D] | 0.039 ± 0.087
KILMCPEHETERINMYCELCRRPVCHLCKLGGNHANHRVTTASSA [M42A] | 0.12 ± 0.052
KILMCPEHETERINMYCELCRRPVCHLCKLGGNHANHRVTTYSSA [M42Y] | -0.134 ± 0.1
KILMCPEHETERINMYCELCRRPVCHLCKLGGNHANHRVTTHSSA [M42H] | -0.524 ± 0.28
KILMCPEHETERINMYCELCRRPVCHLCKLGGNHANHRVTTFSSA [M42F] | -0.034 ± 0.15
KILMCPEHETERINMYCELCRRPVCHLCKLGGNHANHRVTTGSSA [M42G] | 0.123 ± 0.045
KILMCPEHETERINMYCELCRRPVCHLCKLGGNHANHRVTTLSSA [M42L] | -0.031 ± 0.051
KILMCPEHETERINMYCELCRRPVCHLCKLGGNHANHRVTTKSSA [M42K] | 0.079 ± 0.06
KILMCPEHETERINMYCELCRRPVCHLCKLGGNHANHRVTTISSA [M42I] | -0.282 ± 0.081
KILMCPEHETERINMYCELCRRPVCHLCKLGGNHANHRVTTESSA [M42E] | 0.16 ± 0.061
KILMCPEHETERINMYCELCRRPVCHLCKLGGNHANHRVTTTSSA [M42T] | 0.097 ± 0.064
KILMCPEHETERINMYCELCRRPVCHLCKLGGNHANHRVTTNSSA [M42N] | -0.059 ± 0.079
KILMCPEHETERINMYCELCRRPVCHLCKLGGNHANHRVTTSSSA [M42S] | 0.06 ± 0.058
KILMCPEHETERINMYCELCRRPVCHLCKLGGNHANHRVTTPSSA [M42P] | 0.087 ± 0.068
